Experiments:
[1] = type: physicochemical; conditions: N = 90/x, ~90 DSPE-PEG2000 monomers per SSM, x = lipid molecules at saturation
[2] = cited from earlier work

Human neuropeptide Y [NPY]
maximal number of NPY molecules that could self-associate with one SSM [1]: three
half-life in vivo [2]: minutes
